According to patent publication US20230037911A1:

How the values were obtained:
[1] = molecular target: recombinant mouse-TIGIT (mouse) (UniProt P86176); test: ELISA on recombinant mouse-TIGIT
[2] = molecular target: recombinant cynomolgus TIGIT (cyno-TIGIT ECD) (cynomolgus monkey); test: ELISA on recombinant cyno-TIGIT
[3] = molecular target: human TIGIT stably expressed on cells (Jurkat; 293T) (human) (UniProt Q495A1); test: flow cytometry (CytoFlex), whole cell binding on h-TIGIT cells; representative of three experiments
human TIGIT stably expressed on cells (Jurkat; 293T) (human), sequence (Q495A1 22-244 limits assumed): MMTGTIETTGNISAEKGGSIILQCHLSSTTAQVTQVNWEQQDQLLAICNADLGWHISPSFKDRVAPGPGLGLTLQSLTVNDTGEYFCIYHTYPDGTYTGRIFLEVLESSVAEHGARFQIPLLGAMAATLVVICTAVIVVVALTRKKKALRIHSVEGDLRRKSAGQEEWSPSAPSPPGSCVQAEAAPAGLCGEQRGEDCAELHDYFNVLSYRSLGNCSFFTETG

[4] = molecular target: human TIGIT stably expressed on cells (Jurkat; 293T) (human) (UniProt Q495A1); test: cell-based or functional assay
[5] = molecular target: recombinant human TIGIT extra cellular domain (ECD) protein (human) (UniProt Q495A1); test: ELISA on recombinant human TIGIT ECD
recombinant human TIGIT extra cellular domain (ECD) protein (human), sequence (Q495A1 22-138 limits assumed): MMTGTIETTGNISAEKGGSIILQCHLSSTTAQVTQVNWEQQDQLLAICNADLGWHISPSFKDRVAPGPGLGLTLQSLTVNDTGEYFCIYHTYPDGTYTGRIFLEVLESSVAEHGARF

[6] = molecular target: human TIGIT stably expressed on cells (Jurkat; 293T) (human) (UniProt Q495A1); test: whole cell binding, flow cytometry, n=3

recombinant cynomolgus TIGIT (cyno-TIGIT ECD) (cynomolgus monkey), sequence (chain, as listed by the source): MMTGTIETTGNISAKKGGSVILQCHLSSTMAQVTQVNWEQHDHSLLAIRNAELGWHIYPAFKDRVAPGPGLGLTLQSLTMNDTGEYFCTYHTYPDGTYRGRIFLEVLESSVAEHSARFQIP
recombinant mouse-TIGIT (mouse), sequence (P86176 29-148 limits assumed): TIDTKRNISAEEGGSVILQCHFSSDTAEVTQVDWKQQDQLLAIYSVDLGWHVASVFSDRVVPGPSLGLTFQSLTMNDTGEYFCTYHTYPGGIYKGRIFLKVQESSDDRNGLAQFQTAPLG

| EC50 (read off the curve) [1] [µg/mL] | EC50 (read off the curve) [2] [µg/mL] | EC50 (read off the curve) [3] [nM] | EC50, TIGIT blockade NFAT luciferase reporter assay [4] [nM] | EC50 (read off the curve) [5] [µg/mL] | EC50 [6] [nM] | Substance |
| --- | --- | --- | --- | --- | --- | --- |
| 0.08 |  |  |  |  |  | anti-mouse TIGIT reference antibody (Biolegend #142101) |
|  | 0.1 | 0.5 | 0.72 | 0.1 | 0.61 | Reference Ab 2 (reference anti-human-TIGIT antibody with the amino acid sequences of Tiragolumab, U.S. 2017/0088613 A1) |
